In patent US20080268507:

What was measured:
Assay in all cases: cleavage_in_vitro
[1] = system: T1, Nt.CviPII (His+) (Chlorella virus NYs-1); conditions: NEBuffer 4 (10 mM Mg acetate), 37 C 1 h
T1 sequence: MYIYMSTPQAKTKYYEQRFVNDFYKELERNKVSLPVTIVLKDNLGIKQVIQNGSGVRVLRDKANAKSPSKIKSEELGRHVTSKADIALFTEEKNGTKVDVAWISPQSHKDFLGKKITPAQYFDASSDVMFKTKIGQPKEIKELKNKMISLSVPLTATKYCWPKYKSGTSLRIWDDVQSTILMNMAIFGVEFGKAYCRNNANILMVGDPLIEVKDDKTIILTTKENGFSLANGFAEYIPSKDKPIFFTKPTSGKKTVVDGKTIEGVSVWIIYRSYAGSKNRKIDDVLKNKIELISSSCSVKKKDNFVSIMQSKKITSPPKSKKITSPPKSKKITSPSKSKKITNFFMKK

[2] = system: NPN297 (Nt.CviPII C-terminal truncation) (Chlorella virus NYs-1); conditions: 37 C 1 h; same specificity as wild type
[3] = system: NPN329 (Nt.CviPII C-terminal truncation) (Chlorella virus NYs-1); conditions: 37 C 1 h; same specificity as wild type

pUC19 plasmid gave an activity [1] of 9410 units/mg, an activity [2] of 2600 units/mg and an activity [3] of 1400 units/mg.
